Data: patent CN113621063A (JIANGSU QUANXIN BIOMEDICAL CO LTD; JIANGSU SAIFUSHI …, dated 2021)

Experiments:
人干扰素α受体1(IFNAR1) = molecular target: T1, 人干扰素α受体1(IFNAR1) (human, UniProt P17181 28-436); experiment: SPR, Biacore T200, antibody captured on Protein A chip, antigen in flow, 25℃, 1:1 model, mean of three runs
T1 construct: Soluble antigen flowed over the captured antibody in the Biacore assay; also called 人IFNAR1; Human Interferon alpha/beta Receptor 1
T1 sequence: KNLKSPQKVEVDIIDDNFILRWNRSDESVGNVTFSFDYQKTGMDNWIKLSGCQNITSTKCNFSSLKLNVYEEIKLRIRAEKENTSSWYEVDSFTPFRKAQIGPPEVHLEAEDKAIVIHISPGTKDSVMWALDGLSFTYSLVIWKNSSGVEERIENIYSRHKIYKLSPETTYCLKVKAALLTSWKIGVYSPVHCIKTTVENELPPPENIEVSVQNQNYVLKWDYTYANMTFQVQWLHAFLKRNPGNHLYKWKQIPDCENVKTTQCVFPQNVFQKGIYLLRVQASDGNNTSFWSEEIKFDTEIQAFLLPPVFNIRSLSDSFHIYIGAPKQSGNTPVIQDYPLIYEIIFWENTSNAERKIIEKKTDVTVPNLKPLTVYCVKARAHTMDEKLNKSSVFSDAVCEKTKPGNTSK

[1] = molecular target: T2, 人IFNAR1 (on HEK Blue IFNα/β cells, Daudi cells, human whole blood cells) (human, UniProt P17181 28-557); experiment: cell-based or functional assay
T2 sequence (looked up): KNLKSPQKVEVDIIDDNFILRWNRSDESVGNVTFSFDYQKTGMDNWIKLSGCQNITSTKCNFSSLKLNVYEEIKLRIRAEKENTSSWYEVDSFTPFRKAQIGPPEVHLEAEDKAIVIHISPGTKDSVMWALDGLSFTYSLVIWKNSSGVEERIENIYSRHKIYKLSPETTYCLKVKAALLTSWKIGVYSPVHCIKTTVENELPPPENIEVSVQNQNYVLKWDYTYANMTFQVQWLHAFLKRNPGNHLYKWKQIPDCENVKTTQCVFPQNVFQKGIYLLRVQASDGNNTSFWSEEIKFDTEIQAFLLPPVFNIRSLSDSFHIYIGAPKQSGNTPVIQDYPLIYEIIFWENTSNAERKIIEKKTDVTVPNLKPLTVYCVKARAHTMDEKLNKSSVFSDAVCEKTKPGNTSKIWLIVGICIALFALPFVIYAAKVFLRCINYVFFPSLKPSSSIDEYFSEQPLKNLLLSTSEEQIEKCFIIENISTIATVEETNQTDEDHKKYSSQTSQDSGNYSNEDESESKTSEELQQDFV

B1: QX006N(HZD1203-45-IgG4.1) (antibody, V domains shown)
VH: EVQLVESGGGLVQPGGSLRLSCAASGFSLSSYYMTWVRQAPGKGLEWVSVINVYGGTYYASWAKGRFTISRDNSKNTLYLQMNSLRAEDTAVYYCAREDVAVYMAIDLWGQGTLVTVSS
VL: AIQMTQSPSSLSASVGDRVTITCQASQSISNQLSWYQQKPGKAPKLLIYDASSLASGVPSRFSGSRSGTKFTLTISSLQPEDFATYYCLGIYGDGADDGIAFGGGTKVEIK
notes: Humanized rabbit clone 1203#; The human IgG1 constant region was replaced by human IgG4 (plasmid pHZDCH-362VH-Hu6-IgG4.1) and the light chain plasmid is pHZDCK (kappa); also called 抗人干扰素α受体1单克隆抗体QX006N; 重组人源化抗IFNAR1单克隆抗体
For B1, the Kd (人干扰素α受体1(IFNAR1)) was 0.108 nM, the koff (人干扰素α受体1(IFNAR1)) was 3.76e-05 s⁻¹ and the kon (人干扰素α受体1(IFNAR1)) was 347000 M⁻¹ s⁻¹. For the same binder, the 抑制干扰素诱导的Daudi细胞增殖活性的EC50 [1] was 29.9 ng/mL, the “抑制干扰素诱导的HEK Blue IFNα/β细胞中1/2磷酸化活性的IC50” value [1] was 5.23 ng/mL and the 抑制干扰素诱导的全血释放CXCL10/IP10活性的IC50 [1] was 698 ng/mL.

B2: Anifrolumab (antibody, V domains shown)
VH: EVQLVQSGAEVKKPGESLKISCKGSGYIFTNYWIAWVRQMPGKGLESMGIIYPGDSDIRYSPSFQGQVTISADKSITTAYLQWSSLKASDTAMYYCARHDIEGFDYWGRGTLVTVSS
VL: EIVLTQSPGTLSLSPGERATLSCRASQSVSSSFFAWYQQKPGQAPRLLIYGASSRATGIPDRLSGSGSGTDFTLTITRLEPEDFAVYYCQQYDSSAITFGQGTRLEIKR
B2 was tested, and the 抑制干扰素诱导的Daudi细胞增殖活性的EC50 [1] was 31.7 ng/mL, the “抑制干扰素诱导的HEK Blue IFNα/β细胞中1/2磷酸化活性的IC50” value [1] was 4.43 ng/mL and the 抑制干扰素诱导的全血释放CXCL10/IP10活性的IC50 [1] was 562 ng/mL.
